In PMC12819141, “RNase MRP subunit composition and role in 40S ribosome biogenesis” (Nature Structural & Molecular Biology, 2025):

Target: T1, RPP29 (coexpressed with RMP24 in bacteria) (human, UniProt O95707 1-220)
T1 construct: RPP29 (POP4), human; codon-optimized bicistronic cassette with C18orf21/RMP24 in pGEX-6P-1; The pGEX-6P-1 vector adds GST to one of the two chains; Elution was by PreScission protease or by reduced glutathione; also called POP4; source: E. coli BL21-DE3, coexpressed with RMP24, purified (Glutathione-Agarose, S200 increase)
T1 sequence: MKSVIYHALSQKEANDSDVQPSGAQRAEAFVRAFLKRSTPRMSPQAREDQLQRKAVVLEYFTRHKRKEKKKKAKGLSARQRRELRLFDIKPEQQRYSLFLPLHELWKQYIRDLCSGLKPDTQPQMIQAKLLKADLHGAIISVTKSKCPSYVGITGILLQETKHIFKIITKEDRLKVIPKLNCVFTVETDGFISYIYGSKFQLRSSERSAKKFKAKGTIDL
Assay: SEC; RMP24 and RPP29 coexpressed in E. coli, isolated on Glutathione-Agarose, then passed over a Superdex S200 increase 10/300 GL column in 25 mM Tris HCl pH 8, 100 mM NaCl, 1 mM DTT; peak fractions on Coomassie-stained SDS–PAGE and LC–MS
Settings: both partners purified

- binding result: binds
B1: RMP24 (coexpressed with RPP29 in bacteria) (natural protein, human, UniProt Q32NC0 1-220, looked up)
chain: MRQKHYLEAAARGLHDSCPGQARYLLWAYTSSHDDKSTFEETCPYCFQLLVLDNSRVRLKPKARLTPKIQKLLNREARNYTLSFKEAKMVKKFKDSKSVLLITCKTCNRTVKHHGKSRSFVSTLKSNPATPTSKLSLKTPERRTANPNHDMSGSKGKSPASVFRTPTSGQSVSTCSSKNTSKTKKHFSQLKMLLSQNESQKIPKVDFRNFLSSLKGGLLK
notes: C18orf21 (RMP24), human; codon-optimized bicistronic cassette with RPP29 in pGEX-6P-1; The pGEX-6P-1 vector adds GST to one of the two chains; also called C18orf21; full-length RMP24; source: E. coli BL21-DE3, coexpressed with RPP29, purified (Glutathione-Agarose, S200 increase)
